Assay [1] deals with collagen I (purified, Sigma; acid-soluble human collagen type I in BIAcore) (human) (UniProt P02452). In words: SPR (BIAcore), biphasic dissociation from collagen I, component Koff1.
The target is the same in assay [2]. As to the kind of experiment: SPR (BIAcore), equilibrium binding to immobilised collagen I. For orientation: SPR reads the build-up and loss of mass on a sensor chip optically.
The target is the same in assay [3]. In words: SPR (BIAcore), biphasic dissociation from collagen I, component Koff2.

B1: hLAIR-1-IgG (extracellular domain of human LAIR-1 fused to the Fc region of human IgG1) (Fc fusion, UniProt Q6GTX8 22-165, looked up, not shown: a dimerising Fc or GST)
chain: QEEDLPRPSISAEPGTVIPLGSHVTFVCRGPVGVQTFRLERDSRSTYNDTEDVSQASPSESEARFRIDSVREGNAGLYRCIYYKPPKWSEQSDYLELLVKESSGGPDSPDTEPGSSAGPTQRPSDNSHNEHAPASQGLKAEHLY
As usually defined, the koff is the rate constant with which the complex falls apart. Low readings indicate a long-lived complex, high ones a short-lived complex. The term Kd denotes a measure of binding affinity in units of concentration. A lower Kd goes with tighter binding. B1: the off-rate constant (koff) is 0.000142 s⁻¹ in assay [1] and 0.00187 s⁻¹ in assay [3]. Further, the Kd in assay [2] turned out to be 14.2 nM.

The values above are taken from US20090304686A1, “INTERFERING IN ACTIVATION OF AN IMMUNE CELL BY INFLUENCING INTERACTION OF LAIR AND COLLAGEN” (UNIVERSOTAIR MEDISCH CENTRUM UTRECHT, priority 2006, published 2009).
